Our source for the GTPase activity (coupled assay, 5 μM protein, 1 mM GTP), relative to WT FtsZ values is article doi:10.1101/301622 (bioRxiv, 2018).

The target of this test is ΔCTT, a variant of FtsZ that lacks the CTT (B. subtilis).

“ΔCTT, a variant of FtsZ that lacks the CTT (domain or fragment)” came in with a GTPase activity (coupled assay, 5 μM protein, 1 mM GTP), relative to WT FtsZ of 3 fold.
